Data as given in article PMC5537066, “Dimerization facilitates the conformational transitions for bacterial phosphotransferase enzyme I autophosphorylation in an allosteric manner” (FEBS Open Bio, 2017).

B1: Enzyme I with the H189A and G356S mutations, EIA(G356S) (enzyme)
chain: not shown
notes: Enzyme I (EI) of the bacterial phosphotransferase system, E. coli, full length EI(1-575), with H189A and G356S; also called EI(G356S); source: E. coli BL21star (DE3), purified (DEAE or HisTrap, Superdex, monoQ)
B2: C-terminal domain of enzyme I with the G356S mutation, EIC(G356S) (domain or fragment)
chain: not shown
notes: C-terminal dimerization domain (EIC) of enzyme I, E. coli, residues 231-575, with G356S; also called EIC(G365S) (misprint in the text); source: E. coli BL21star (DE3), purified (DEAE or HisTrap, Superdex, monoQ)
B3: C-terminal domain of enzyme I, EIC(231-575) (domain or fragment)
chain: not shown
notes: C-terminal dimerization domain (EIC) of enzyme I, E. coli, residues 231-575, includes part of the connecting helix 231-260; source: E. coli BL21star (DE3), purified (DEAE or HisTrap, Superdex, monoQ)
B4: Enzyme I (EI) with the active site H189A mutation, EI(1-575, H189A) (enzyme)
chain: not shown
notes: Enzyme I (EI) of the bacterial phosphotransferase system, E. coli, full length EI(1-575), with H189A; also called EIA; EI(H189A); source: E. coli BL21star (DE3), purified (DEAE or HisTrap, Superdex, monoQ)

Columns and labels:
[1] = molecular target: the molecule itself; assay: SEC-MALS; 200 uM protein injected on a WTC-0303 column, buffer A with 10 mM PEP, 25 °C; dimer to monomers
[2] = molecular target: the molecule itself; assay: SEC-MALS; 200 uM protein injected on a WTC-0303 column, buffer A (20 mM Tris/HCl pH 7.4, 100 mM NaCl, 2 mM β-mercaptoethanol, 4 mM MgCl2), 25 °C, without PEP; 50 uM elution concentration; KD (dimer to monomers) estimated from the dimer fraction, semiquantitative

Protein | percent dimer [1] | stoichiometry N [1] | Kd [2] | stoichiometry N [2]
B1 | > 90% | 2 | ~30 µM | 
B2 | ~80% |  | ≥ 5 µM | 2
B3 |  |  |  | 2
B4 | > 90% |  | ~0.4 µM | 2
